Experimental data published in publication PMC8214912.
Where two headings read alike, the source gives them in different places.

Experiments:
Experiment in all cases: NMR titration
[1] = biological target: T1, N 1-209 (nucleocapsid N-terminal region: N-terminal flank, NTD and SR region) (SARS-CoV-2, UniProt P0DTC9 1-209)
[2] = biological target: T1, N 1-209 (nucleocapsid N-terminal …); remark: listed apart in the source
[3] = biological target: T1, N 1-209 (nucleocapsid N-terminal …); remark: listed apart in the source

B1: GU 12-mer (ssRNA)
RNA: GUGUGUGCCUGU
Kd [1]: 6 ± 2 µM

B2: AAUAA (ssRNA)
RNA: AAUAA
Kd [2]: 189 ± 22 µM

B3: dUAAUAAdC (mixed)
RNA: UAAUAAC
modifications: 2'-deoxy at terminal nucleotides 1 (dU) and 7 (dC); remainder RNA
Kd [2]: 138 ± 12 µM

B4: TAATAAC (ssDNA)
DNA: TAATAAC
Kd [3]: 110 ± 8 µM

B5: H25 30-mer (structured_RNA)
RNA: GGUGGGAGCCUCUUUUAUGGGGUGACUGCC
Kd [3]: 19.9 ± 4.7 µM
